Where two headings read alike, the source gives them in different places.
Legend:
UBA5 [1] = settings: in vitro; cited from earlier work
Text: The UBA5 C-terminal part (Figure 1A) plays a complex regulatory role, consisting of a few conserved regions that mediate interaction of UBA5 with other key players in the ufmylation cascade. The first sequence is a conserved region (R1, residues 334–348), interacting with UFM1 [10, 29, 30, 31, 32] and also with LC3/GABARAP proteins. This region (called LIR/UFIM by its dual nature) is important for the initial binding of UFM1 to UBA5 [10, 29, 31, 32] and for the following UFM1 activation in a trans-fashion. Trans-activation means that UBA5 forms an active ho ...

UFC1 = target: T1, UFC1 (Homo sapiens, UniProt Q9Y3C8); experiment: In vitro thioester formation (ufmylation) assay, UFC1~UFM1 conjugate; assay type: biochemical; settings: 70 µM UFM1, 20 µM UFC1, 20 µM UBA5 construct, 1 mM ATP, 50 mM HEPES pH 7.5, 22 °C
T1 construct: Full length UFC1, residues 1–167; modified ubiquitin tag (Ub19) with TEV site (N, cleaved yes); made in house; host or cells: E. coli T7 Express
T1 sequence (Q9Y3C8 1-167): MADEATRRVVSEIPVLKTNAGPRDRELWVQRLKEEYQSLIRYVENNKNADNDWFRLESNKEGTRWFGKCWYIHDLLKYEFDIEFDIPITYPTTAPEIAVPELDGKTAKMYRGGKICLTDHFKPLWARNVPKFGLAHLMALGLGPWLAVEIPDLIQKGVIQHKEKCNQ
Procedure: First, we analyzed the effect of the UBA5 C-terminus on UFM1 transfer to UFC1 with an in vitro thioester formation assay (Figure 1B–E).
Ufmylation reaction assays were adopted from work of Xie. Briefly, 70 µM UFM1, 20 µM UFC1 and 20 µM of different UBA5 constructs were mixed in reaction buffer (50 mM HEPES pH = 7.5, 100 mM NaCl, 5 mM MgCl2). After starting the reaction with addition of 1 mM ATP, the reaction mix was incubated at 22 °C for the desired time. To quench the reaction and prepare electrophoretic samples, 1 µL of the reaction mix was added to 99 µL 1x non-reducing SDS loading buffer and frozen in liquid nitrogen. Sample content was visualized by sodium dodecyl sulfate polyacrylamide gel electrophoresis (SDS-PAGE). The transfer to polyvinylidene difluoride (PVDF) membrane was performed via a Trans-Blot® Turbo™ Transfer System (Bio-Rad, München, Germany). After transfer the membrane was blocked with TBST (Tris-buffered saline with Tween20 buffer, 20 mM Tris, 150 mM NaCl and 0.1% TWEEN 20) containing 5% w/v nonfat dry milk for 1 h, followed by α-UFC1 antibody incubation over night at 4 °C (ab189251 abcam, 1:10,000 in TBST containing 5% w/v nonfat dry milk). After washing with TBST the membrane was incubated with secondary antibody (anti-rabbit-HRP) for 1 h at RT and again washed with TBST. […] For quantification of UFC1 ufmylation coloc2 software implemented in ImageJ was used.

UBA5 [2] = settings: cited from earlier work
Text: Another conserved region in UBA5 is located at it very C-terminus (R3, residues 393–404) and is predicted to have a helical conformation. […] UFC1, the only known E2 enzyme for UFM1, was characterized structurally a few years after discovery of the UFM1 cascade. […] In our structure we observed that the UFC1 K33 sidechain forms an intermolecular hydrogen bond with the UBA5 D389 sidechain (Figure 3F). In contrast, UFC1 Q31 is not in contact with any of the UBA5 R3 residue and could not affect the UBA5:UFC1 interaction.

B1: GABARAP: GABARAP, residues 3–116 (protein)
chain: GAMFVYKEEHPFEKRRSEGEKIRKKYPDRVPVIVEKAPKARIGDLDKKKYLVPSDLTVGQFYFLIRKRIHLRAEDALFFFVNNVIPPTSATMGQLYQEHHEEDFFLYIAYSDESVYG
modifications: left off: modified ubiquitin tag (Ub19), N-terminal, cleaved
effect on UFM1 binding to UBA5 (UBA5 [1]): inhibit UFM1 binding to UBA5

B2: AD^1–330: UBA5 adenylation domain, residues 1–330 (protein, UniProt Q9GZZ9 1-330, looked up, fragment)
chain: MAESVERLQQRVQELERELAQERSLQVPRSGDGGGGRVRIEKMSSEVVDSNPYSRLMALKRMGIVSDYEKIRTFAVAIVGVGGVGSVTAEMLTRCGIGKLLLFDYDKVELANMNRLFFQPHQAGLSKVQAAEHTLRNINPDVLFEVHNYNITTVENFQHFMDRISNGGLEEGKPVDLVLSCVDNFEARMTINTACNELGQTWMESGVSENAVSGHIQLIIPGESACFACAPPLVVAANIDEKTLKREGVCAASLPTTMGVVAGILVQNVLKFLLNFGTVSFYLGYNAMQDFFPTMSMKPNPQCDDRNCRKQQEEYKKKVAALPKQEVIQE
modifications: adenylation domain
UFC1~UFM1 conjugation (UFC1; 7 h): 80% | UFC1 conjugated to UFM1 (UFC1~UFM1) (UFC1; within 30 min, Western blot, triplicates): less than 5%

B3: UFC1 K33A: UFC1 K33A mutation, literature (protein, UniProt Q9Y3C8 1-167, looked up, variant K33A)
Ubiquitin-fold …: MADEATRRVVSEIPVLKTNAGPRDRELWVQRLAEEYQSLIRYVENNKNADNDWFRLESNKEGTRWFGKCWYIHDLLKYEFDIEFDIPITYPTTAPEIAVPELDGKTAKMYRGGKICLTDHFKPLWARNVPKFGLAHLMALGLGPWLAVEIPDLIQKGVIQHKEKCNQ
effect of UFC1 mutation on UBA5 binding and UFM1 transfer (UBA5 [2]): significantly reduces both UBA5 binding and UFM1 transfer from UBA5 to UFC1 | effect of UFC1 mutation on UBA5 binding and UFM1 transfer (UBA5 [2]; listed as K33A): impaired UBA5 binding and UFM1 transfer to UFC1

Reference: publication PMC8304084, “A Concerted Action of UBA5 C-Terminal Unstructured Regions Is Important for Transfer of Activated UFM1 to UFC1” (International Journal of Molecular Sciences, 2021)
